Tested on: Escherichia coli TOP10
Assay: shrunken log2 fold change of peptide-encoding DNA abundance (4.5 h post-induction vs induction); higher = less antimicrobial activity (less host growth inhibition)
Settings: time post-induction: 4.5 h; library: site-saturation at positions 5, 18, 19, 20
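Also: peptides expressed intracellularly from a pBAD plasmid library in pooled LB shake-flask culture, induced with 0.3% L-arabinose, DNA abundance read by NGS, three biological replicates, DESeq2 with apeglm shrinkage.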

RRIRFRPPRLPRPRPRPTANPRP and RRIRFRPPRLPRPRPRPTCMPRP are within 0.2 log units of each other in “shrunken log2 fold change” value: -0.0711 for the first, -0.0546 for the second.

Compared with RRIRFRPPRLPRPRPRPTCQPRP, RRIRFRPPRLPRPRPRPTDHPRP is lower in “shrunken log2 fold change” value: -0.0887 for the first, -0.323 for the second.

Going from RRIRFRPPRLPRPRPRPTEAPRP to RRIRFRPPRLPRPRPRPTEIPRP, the “shrunken log2 fold change” value falls from 0.332 to -0.413.

Compared with RRIRFRPPRLPRPRPRPTFHPRP, RRIRFRPPRLPRPRPRPTFKPRP is higher in “shrunken log2 fold change” value: -0.385 for the first, 0.0617 for the second.

Compared with RRIRFRPPRLPRPRPRPTFQPRP, RRIRFRPPRLPRPRPRPTFYPRP is lower in “shrunken log2 fold change” value: -0.156 for the first, -0.366 for the second.

Compared with RRIRFRPPRLPRPRPRPTGFPRP, RRIRFRPPRLPRPRPRPTGGPRP is higher in “shrunken log2 fold change” value: 0.0467 for the first, 0.259 for the second.

Compared with RRIRFRPPRLPRPRPRPTGTPRP, RRIRFRPPRLPRPRPRPTGWPRP is higher in “shrunken log2 fold change” value: 0.0314 for the first, 0.456 for the second.

First: RRIRFRPPRLPRPRPRPTHFPRP
Second: RRIRFRPPRLPRPRPRPTIVPRP
The “shrunken log2 fold change” value of the first is lower: -0.227 for the first, 0.0438 for the second.

RRIRFRPPRLPRPRPRPTLDPRP and RRIRFRPPRLPRPRPRPTLMPRP are within 0.2 log units of each other in “shrunken log2 fold change” value: 0.0939 for the first, 0.0425 for the second.

Compared with RRIRFRPPRLPRPRPRPTMRPRP, RRIRFRPPRLPRPRPRPTQYPRP is lower in “shrunken log2 fold change” value: 0.605 for the first, -0.261 for the second.

RRIRFRPPRLPRPRPRPTRGPRP and RRIRFRPPRLPRPRPRPTRVPRP are within 0.2 log units of each other in “shrunken log2 fold change” value: 0.54 for the first, 0.616 for the second.

RRIRFRPPRLPRPRPRPTSWPRP and RRIRFRPPRLPRPRPRPTWQPRP are within 0.2 log units of each other in “shrunken log2 fold change” value: 0.3 for the first, 0.145 for the second.

Going from RRIRFRPPRLPRPRPRPTYLPRP to RRIRFRPPRLPRPRPRPTYPPRP, the “shrunken log2 fold change” value falls from -0.243 to -0.497.

Compared with RRIRFRPPRLPRPRPRPVDEPRP, RRIRFRPPRLPRPRPRPVDIPRP is lower in “shrunken log2 fold change” value: 0.0494 for the first, -0.338 for the second.

Going from RRIRFRPPRLPRPRPRPVEAPRP to RRIRFRPPRLPRPRPRPVFKPRP, the “shrunken log2 fold change” value falls from -0.103 to -0.57.

Compared with RRIRFRPPRLPRPRPRPVFSPRP, RRIRFRPPRLPRPRPRPVGDPRP is higher in “shrunken log2 fold change” value: -0.293 for the first, 0.535 for the second.

Going from RRIRFRPPRLPRPRPRPVGMPRP to RRIRFRPPRLPRPRPRPVGTPRP, the “shrunken log2 fold change” value falls from 0.348 to 0.00754.

Compared with RRIRFRPPRLPRPRPRPVIYPRP, RRIRFRPPRLPRPRPRPVKCPRP is higher in “shrunken log2 fold change” value: -0.588 for the first, -0.0573 for the second.

RRIRFRPPRLPRPRPRPVKEPRP and RRIRFRPPRLPRPRPRPVKFPRP are within 0.2 log units of each other in “shrunken log2 fold change” value: -0.0554 for the first, -0.0322 for the second.

RRIRFRPPRLPRPRPRPVKQPRP and RRIRFRPPRLPRPRPRPVKYPRP are within 0.2 log units of each other in “shrunken log2 fold change” value: -0.0303 for the first, -0.147 for the second.

RRIRFRPPRLPRPRPRPVLKPRP and RRIRFRPPRLPRPRPRPVMTPRP are within 0.2 log units of each other in “shrunken log2 fold change” value: -0.24 for the first, -0.218 for the second.

First: RRIRFRPPRLPRPRPRPVNGPRP
Second: RRIRFRPPRLPRPRPRPVPRPRP
The “shrunken log2 fold change” value of the first is lower: -0.746 for the first, 0.384 for the second.

Going from RRIRFRPPRLPRPRPRPVRMPRP to RRIRFRPPRLPRPRPRPVRWPRP, the “shrunken log2 fold change” value rises from 0.0345 to 0.632.

Going from RRIRFRPPRLPRPRPRPVSKPRP to RRIRFRPPRLPRPRPRPVTRPRP, the “shrunken log2 fold change” value rises from -0.358 to -0.0263.

Compared with RRIRFRPPRLPRPRPRPVVQPRP, RRIRFRPPRLPRPRPRPVWWPRP is higher in “shrunken log2 fold change” value: -0.119 for the first, 0.148 for the second.

Going from RRIRFRPPRLPRPRPRPVYMPRP to RRIRFRPPRLPRPRPRPVYYPRP, the “shrunken log2 fold change” value falls from -0.969 to -1.27.

Compared with RRIRFRPPRLPRPRPRPWALPRP, RRIRFRPPRLPRPRPRPWCSPRP is lower in “shrunken log2 fold change” value: 0.00634 for the first, -0.714 for the second.

Going from RRIRFRPPRLPRPRPRPWCWPRP to RRIRFRPPRLPRPRPRPWDTPRP, the “shrunken log2 fold change” value falls from 0.155 to -0.421.

Going from RRIRFRPPRLPRPRPRPWGHPRP to RRIRFRPPRLPRPRPRPWGWPRP, the “shrunken log2 fold change” value rises from -0.000438 to 0.346.

RRIRFRPPRLPRPRPRPWHFPRP and RRIRFRPPRLPRPRPRPWHKPRP are within 0.2 log units of each other in “shrunken log2 fold change” value: -0.542 for the first, -0.413 for the second.

RRIRFRPPRLPRPRPRPWHNPRP and RRIRFRPPRLPRPRPRPWHSPRP are within 0.2 log units of each other in “shrunken log2 fold change” value: 0.0654 for the first, -0.018 for the second.

RRIRFRPPRLPRPRPRPWKCPRP and RRIRFRPPRLPRPRPRPWKGPRP are within 0.2 log units of each other in “shrunken log2 fold change” value: 0.0039 for the first, -0.0869 for the second.

RRIRFRPPRLPRPRPRPWLCPRP and RRIRFRPPRLPRPRPRPWMCPRP are within 0.2 log units of each other in “shrunken log2 fold change” value: -0.173 for the first, -0.0872 for the second.

RRIRFRPPRLPRPRPRPWMHPRP and RRIRFRPPRLPRPRPRPWNWPRP are within 0.2 log units of each other in “shrunken log2 fold change” value: -0.0282 for the first, 0.0169 for the second.

Compared with RRIRFRPPRLPRPRPRPWPNPRP, RRIRFRPPRLPRPRPRPWRGPRP is higher in “shrunken log2 fold change” value: -0.086 for the first, 0.172 for the second.

Compared with RRIRFRPPRLPRPRPRPWRLPRP, RRIRFRPPRLPRPRPRPWWNPRP is higher in “shrunken log2 fold change” value: -0.799 for the first, -0.26 for the second.

Going from RRIRFRPPRLPRPRPRPWYIPRP to RRIRFRPPRLPRPRPRPYAHPRP, the “shrunken log2 fold change” value rises from -0.623 to -0.18.

For RRIRFRPPRLPRPRPRPYAPPRP, the “shrunken log2 fold change” value was -0.496.
